Usually % inhibition stands for the relative decrease from the control value, in per cent.

The target in test [1] is T1, FcRn of neonatal mouse intestine (mouse) (UniProt Q61559).
T1 sequence (looked up): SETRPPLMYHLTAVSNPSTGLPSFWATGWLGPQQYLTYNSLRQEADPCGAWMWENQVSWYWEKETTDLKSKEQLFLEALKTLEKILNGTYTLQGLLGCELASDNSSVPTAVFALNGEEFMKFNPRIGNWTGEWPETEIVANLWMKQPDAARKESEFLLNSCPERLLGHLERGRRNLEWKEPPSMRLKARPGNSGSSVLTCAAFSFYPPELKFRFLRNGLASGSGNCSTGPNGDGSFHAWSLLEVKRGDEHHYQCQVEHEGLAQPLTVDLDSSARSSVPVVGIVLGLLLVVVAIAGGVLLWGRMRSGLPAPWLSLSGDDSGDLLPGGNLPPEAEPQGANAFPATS
T1 sequence (b2m, looked up): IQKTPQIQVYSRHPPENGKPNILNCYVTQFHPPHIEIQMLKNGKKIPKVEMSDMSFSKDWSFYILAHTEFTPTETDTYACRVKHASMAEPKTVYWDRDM
In words: cell-based or functional assay.

The target of test [2] is recombinant soluble mouse FcRn (mouse) (UniProt Q61559). Description: inhibition of 125I-sFcRn binding to murine IgG1-Sepharose; molar ratio of inhibitor/FcRn given as 1/500.
For test [3] the target is unchanged. Description: inhibition of 125I-sFcRn binding to murine IgG1-Sepharose; molar ratio of inhibitor/FcRn given as 1/1000.

B1: complete murine IgG1 molecule (antibody, part only; not given: variable domains and Fab arms, not shown: another chain or arm of the molecule)
Fc: VPRDCGCKPCICTVPEVSSVFIFPPKPKDVLTITLTPKVTCVVVDISKDDPEVQFSWFVDDVEVHTAQTQPREEQFNSTFRSVSELPIMHQDWLNGKEFKCRVNSAAFPAPIEKTISKTKGRPKAPQVYTIPPPKEQMAKDKVSLTCMITDFFPEDITVEWQWNGQPAENYKNTQPIMNTNGSYFVYSKLNVQKSNWEAGNTFTCSVLHEGLHNHHTEKSLSHSPGK
modifications: Glycosylated whole IgG1 from hybridoma or mammalian cells; used free, 125I-labelled or coupled to Sepharose. Two heavy chains are joined at the hinge.
In turn, B1 registered an Inhibition of transmission (%) of radiolabeled mIgG1 across the intestine of neonatal mice in test [1] of 51.4%. Further, the results for the % inhibition in test [2] and in test [3] were 24.7% and 45.6%, respectively.

(Values after patent publication US20020098193A1.)
